Experimental data: PMC3302758

Columns and labels:
[1] = target: 14-3-3β (UniProt P31946); assay: CFTR IP, 14-3-3β immunoblot; conditions: reference: basal cells; sites S660,S670,S700,S712,S737,S753,S768,S795,S813
[2] = target: 14-3-3ε (UniProt P62258); assay: CFTR IP, 14-3-3ε immunoblot; conditions: reference: basal cells; sites S660,S670,S700,S712,S737,S753,S768,S795,S813

CFTR (from UniProt P13569) forskolin 10 µM, 15 min
fold change [1]: 2.3 fold | fold change [2]: 3.1 fold
